In paper PMC10899662, “TopBP1 utilises a bipartite GINS binding mode to support genome replication” (Nature Communications, 2024):
Residues, ends and D or L forms follow the SMILES beside them. No end group written: not given here. *: point of attachment. 5FAM = O=C1OC2(c3ccc(O)cc3Oc3cc(O)ccc32)c2ccc(C(=O)*)cc21; Flu = fluorescein

Key:
[1] = target: T1, GINS tetramer (Homo sapiens, UniProt Q14691+Q9BRT9+Q9BRX5+Q9Y248); experiment: Fluorescence polarisation of fluorescein-labelled GINI-core peptides with GINS; format: binding; conditions: room temperature
T1 construct: made in house; host or cells: SF9 insect cells, single baculovirus made with pBig1a
T1 sequence (Q14691 whole entry): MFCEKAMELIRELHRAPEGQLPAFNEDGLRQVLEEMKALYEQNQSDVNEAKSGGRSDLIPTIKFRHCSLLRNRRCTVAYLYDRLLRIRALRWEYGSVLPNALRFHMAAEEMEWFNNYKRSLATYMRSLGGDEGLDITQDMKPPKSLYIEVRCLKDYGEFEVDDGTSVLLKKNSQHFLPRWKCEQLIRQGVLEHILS
T1 sequence (Q9BRX5 whole entry): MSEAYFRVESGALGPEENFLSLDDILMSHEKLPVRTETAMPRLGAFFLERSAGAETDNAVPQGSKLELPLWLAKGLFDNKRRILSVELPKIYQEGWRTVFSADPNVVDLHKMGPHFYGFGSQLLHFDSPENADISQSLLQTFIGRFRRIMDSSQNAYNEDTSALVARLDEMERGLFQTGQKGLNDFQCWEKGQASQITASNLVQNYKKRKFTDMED
T1 sequence (Q9Y248 whole entry partner): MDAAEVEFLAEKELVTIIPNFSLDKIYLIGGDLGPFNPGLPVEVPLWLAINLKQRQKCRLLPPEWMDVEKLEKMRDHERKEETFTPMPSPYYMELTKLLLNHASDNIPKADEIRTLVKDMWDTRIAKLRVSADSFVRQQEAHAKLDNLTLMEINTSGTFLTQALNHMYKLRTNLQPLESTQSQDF
T1 sequence (Q9BRT9 whole entry partner): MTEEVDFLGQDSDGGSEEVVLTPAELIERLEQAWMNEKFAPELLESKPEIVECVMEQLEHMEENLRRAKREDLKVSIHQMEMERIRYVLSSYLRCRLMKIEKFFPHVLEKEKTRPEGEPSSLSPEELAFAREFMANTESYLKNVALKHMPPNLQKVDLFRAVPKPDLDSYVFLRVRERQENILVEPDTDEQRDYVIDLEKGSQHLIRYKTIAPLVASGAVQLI
Source text: As the predicted interface between the TopBP1-GINI region and GINS[32] was not evident in our cryo-EM map we used additional interaction experiments to validate a role for this motif in GINS binding. The GINI region had been loosely defined as sitting between TopBP1-BRCT3 and BRCT4 (Fig. 1a(i)). […] We mutated this core, and other regions of conservation, to generate the mutants TopBP1-Gcc (GINI centre core), Gcore (GINI core) and RI-III (regions I-III) (Fig. 3a, Supplementary Fig. 7). […] To test if this helix constituted a GINS-interaction surface, we used fluorescence polarisation (FP). A fluorescently labelled GINI-core peptide (Ala478-Gly497) bound the GINS tetramer with a dissociation constant of Kd of ~8 µM (Fig. 3d). […] We therefore concluded that the GINI region is a GINS interaction site in its own right, but with moderate binding affinity.
Fig. 3 The conserved core of the TopBP1-GINI domain is required for a stable interaction with GINS. a Domain model and T-COFFEE alignment (one-letter aa code) of TopBP1 proteins from humans (Q92547) Xenopus laevis (Q7ZZY3), Bos taurus (A0A3Q1LWE4) and Rattus norvegicus (A0A8I6GFZ6). […] Source data are provided as a Source data file. d Fluorescence polarisation measurements including dissociation constants (kD) calculations using recombinant GINS tetramer and fluorescently labelled TopBP1-GINI-core peptides (WT or Gpp (a)). […]

[2] = target: GINS (6xHis-3xFlag-Sld5, Psf1, Psf2, Psf3) for pulldown experiments (UniProt Q9BRT9)
Sequence of GINS (6xHis-3xFlag-Sld5, Psf1, Psf2, Psf3) for pulldown experiments (Q9BRT9 whole entry, chain 1 of 4): as the sequence (Q9BRT9 whole entry partner) above
Sequence of GINS (6xHis-3xFlag-Sld5, Psf1, Psf2, Psf3) for pulldown experiments (Q14691 whole entry, chain 2 of 4, further chain): as the sequence (Q14691 whole entry) above
Sequence of GINS (6xHis-3xFlag-Sld5, Psf1, Psf2, Psf3) for pulldown experiments (Q9Y248 whole entry, chain 3 of 4, further chain): as the sequence (Q9Y248 whole entry partner) above
Sequence of GINS (6xHis-3xFlag-Sld5, Psf1, Psf2, Psf3) for pulldown experiments (Q9BRX5 whole entry, chain 4 of 4, further chain): as the sequence (Q9BRX5 whole entry) above

[3] = tested on: GINS; experiment: Pulldown of recombinant TopBP1-BRCT0-5 by immobilised GINS, 150 mM NaCl; format: binding; conditions: summary of recombinant protein interaction tests (yes/no)
Source text: Fig. 1 GINS and TopBP1 interact. a (i) Domain model of human (hs) TopBP1, its conservation with BRCT1/2 and 3/4 domains (grey boxes) of budding yeast Dpb11 (scDpb11). Arrows point to binding domains for interacting proteins. (ii) Overview of TopBP1 wild type (WT) and BRCT deletion (Δ) and point mutants. GINS binding capabilities are labelled in red and green. Numbers, amino acid position; capital letters indicate amino acid substitutions. Amino acid substitutions of point mutants in BRCT4 (B4mut) and 5 (B5mut) are coloured orange. b Elution profiles of size exclusion chromatography (Superdex200) of individual recombinant TopBP1-BRCT0-5 protein (grey) and GINS tetramers (green), or of both upon incubation (blue). c Recombinant GINS immobilised on Flag-beads and control beads (Flag peptide-coupled beads) were used to pull down recombinant TopBP1-0-5-WT or TopBP1-ΔBRCT4/5 (compare a(ii)). SDS gels were silver stained. kDa specifies molecular weight marker bands. The experiment was done more than three times with similar results. Source data are provided as a Source data file. TEXT PRINTED IN THE PICTURE: (a) BRCT0-5-WT: GINS binding? (rec. proteins): yes | (a) ΔBRCT4/5: GINS binding? (rec. proteins): no | (a) ΔBRCT3: GINS binding? (rec. proteins): yes | (a) ΔBRCT0/1/2: GINS binding? (rec. proteins): yes | (a) B5mut: GINS binding? (rec. proteins): yes | (a) B4mut: GINS binding? (rec. proteins): no
Fig. 2 Protein structure of the GINS-TopBP1-BRCT4/5 complex. a Structural model of the GINS-TopBP1-BRCT4/5 complex. Crystal structures of the GINS subunits (PDB:2E9X) (shades of green, yellow), and the central BRCT4/5 domain of TopBP1 (PDB:3UEN) (grey) were docked into the cryo-EM volume shown as transparent volume. b Zoom-in of the BRCT4-Psf1 interface. The residues in stick representation appear crucial for the interface. Mutations to break the interaction are coloured pink (Psf1-I97R) and purple (TopBP1-B4mut; compare Fig. 1a(ii)). c Pulldown of the indicated recombinant TopBP1-BRCT0-5-strep versions (see Fig. 1a(ii)) by Flag-beads-immobilised recombinant GINS or Flag peptide-coupled control beads. Analysis was done by immunoblotting. The experiment was done more than three times with similar results. d Pulldown of the indicated recombinant TopBP1-BRCT0-5-WT-strep using immobilised GINS-WT or GINS carrying a Ile97 to arginine mutation in Psf1.TopBP1-Gcc/B4mut-strep (Figs. 1a(ii) and 3a) was used as a non-GINS binding control. The experiment was done twice with similar results. Source data are provided as a Source data file.
Fig. 3 The conserved core of the TopBP1-GINI domain is required for a stable interaction with GINS. a Domain model and T-COFFEE alignment (one-letter aa code) of TopBP1 proteins from humans (Q92547) Xenopus laevis (Q7ZZY3), Bos taurus (A0A3Q1LWE4) and Rattus norvegicus (A0A8I6GFZ6). Coloured boxes indicate GINI region mutants in sub-regions I (blue), II (green) and III (orange), and in the GINI core helix (red) (details in Supplementary Fig. 7). Amino acid substitutions, names of GINI core region mutations and corresponding GINS binding capabilities are shown. ., : and * indicate low conservation, high conservation and identical amino acids, respectively. b/c Pulldown of recombinant TopBP1-BRCT0-5-strep-WT or the indicated GINI region mutants (a) by bead-immobilised GINS or Flag peptide-coupled control beads. Analysis was done by immunoblotting. The experiments were done more than three times with similar results. Source data are provided as a Source data file. d Fluorescence polarisation measurements including dissociation constants (kD) calculations using recombinant GINS tetramer and fluorescently labelled TopBP1-GINI-core peptides (WT or Gpp (a)). For each peptide n = 3 independent experiments and data are presented as mean values +/−SEM. TEXT PRINTED IN THE PICTURE: (a) TopBP1-Gcc: GINS binding? (rec. proteins): no | (a) TopBP1-Gcore: GINS binding? […]

[4] = tested on: GINS complex; experiment: Size exclusion chromatography co-elution with GINS; format: binding; conditions: Superdex200; 20 µM of each component; 10 mM HEPES pH 7.5, 150 mM NaCl, 0.5 mM TCEP
Protocol: Recombinant TopBP1 and GINS proteins were mixed in an equimolar ratio to give a final concentration of 20 µM of each component and incubated on ice for at least 30 min prior to application to a Superdex200increase 10 300 column (GE Healthcare, Little Chalfont, UK) equilibrated in 10 mM HEPES pH 7.5, 150 mM NaCl, 0.5 mM TCEP.

[5] = target: T2, GINS (HIS-(3C)-Sld5, Psf1, Psf2, Psf3) for structural and fluorescence polarisation studies (UniProt Q9BRT9 1-223; Q14691 1-196; Q9Y248 1-185; Q9BRX5 1-216); experiment: fluorescence polarisation; 100 nM fluorescein-labelled peptide, increasing concentrations of GINS; 25 mM HEPES pH 7.5, 150 mM NaCl, 1 mM EDTA, 0.25 mM TCEP, 0.02% Tween 20; room temperature; conditions: both partners purified
T2 construct: Sld5 subunit of GINS; Psf1 subunit of GINS, with its B domain; Psf2 subunit of GINS; Psf3 subunit of GINS; A 3C site follows the His tag on Sld5; no cleavage is described; also called GINS tetramer; GINS complex; source: Sf9 insect cells, single baculovirus (pBig1a), purified (TALON, Superdex200); copies: + + +
T2 sequence (Q9BRT9 whole entry, chain 1 of 4): as the sequence (Q9BRT9 whole entry partner) above
T2 sequence (Q14691 whole entry, chain 2 of 4): as the sequence (Q14691 whole entry) above
T2 sequence (Q9Y248 whole entry, chain 3 of 4): as the sequence (Q9Y248 whole entry partner) above
T2 sequence (Q9BRX5 whole entry, chain 4 of 4): as the sequence (Q9BRX5 whole entry) above

Flu-GYGAPSEKHEQADEDPPSQYENG [TOPBP1(478-497) L490P L491P, fluorescein-labelled GINI-core peptide with LL to PP mutation]
binding to GINS by fluorescence polarisation ([1]; peptide 100 nM, 150 mM NaCl, n = 3): failed to bind

TopBP1-BRCT0-5-Gcc (from UniProt Q92547 1-766) (domain or fragment)
reduction of nucleotide incorporation (α-32P-dCTP) in TopBP1-depleted Xenopus egg extract after add-back, 120 min time point [2]: 21%

CC(C)C[C@H](NC(=O)[C@H](CC(=O)O)NC(=O)[C@H](CCC(=O)O)NC(=O)[C@H](CC(=O)O)NC(=O)[C@H](C)NC(=O)[C@H](CCC(N)=O)NC(=O)[C@H](CCC(=O)O)NC(=O)[C@H](Cc1c[nH]cn1)NC(=O)[C@H](CCCCN)NC(=O)[C@H](CCC(=O)O)NC(=O)[C@H](CO)NC(=O)[C@@H]1CCCN1C(=O)[C@H](C)NC(=O)CNC(=O)[C@H](Cc1ccc(O)cc1)NC(=O)CNC(=O)c1ccc2c(c1)C(=O)OC21c2ccc(O)cc2Oc2cc(O)ccc21)C(=O)N[C@@H](CC(C)C)C(=O)N[C@@H](CO)C(=O)N[C@@H](CCC(N)=O)C(=O)N[C@@H](Cc1ccc(O)cc1)C(=O)N[C@@H](CCC(=O)O)C(=O)N[C@@H](CC(N)=O)C(=O)NCC(=O)O [TOPBP1(478-497)] (5FAM-GYGAPSEKHEQADEDLLSQYENG-OH)
Kd ([1]; fluorescein-labelled peptide 100 nM, increasing GINS, 25 mM HEPES pH 7.5, 150 mM NaCl, 1 mM EDTA, 0.25 mM TCEP, 0.02% Tween 20, n = 3 independent experiments, interval printed in figure (7.037 - 8.809), read-out: dissociation constant Kd (fluorescence polarisation)): 7.88 µM

B1: TopBP1-ΔBRCT0/1/2: TopBP1-BRCT0-5 with BRCT0-2 module removed (protein)
chain: NSLNSKLEPTLENLENLDVSAFQAPEDLLDGCRIYLCGFSGRKLDKLRRLINSGGGVRFNQLNEDVTHVIVGDYDDELKQFWNKSAHRPHVVGAKWLLECFSKGYMLSEEPYIHANYQPVEIPVSHKPESKAALLKKKNSSFSKKDFAPSEKHEQADEDLLSQYENGSSTVVEAKTSEARPFNDSTHAEPLNDSTHISLQEENQSSVSHCVPDVSTITEEGLFSQKSFLVLGFSNENESNIANIIKENAGKIMSLLSRTVADYAVVPLLGCEVEATVGEVVTNTWLVTCIDYQTLFDPKSNPLFTPVPVMTGMTPLEDCVISFSQCAGAEKESLTFLANLLGASVQEYFVRKSNAKKGMFASTHLILKERGGSKYEAAKKWNLPAVTIAWLLETARTGKRADESHFLIENSTKEERSLETEITNGINLNSDTAEHP
modifications: left off: His, N-terminal, state not stated | Strep, C-terminal, state not stated
notes: TopBP1-BRCT0-5 with BRCT0-2 module removed
GINS binding? (rec. proteins) [3]: yes | co-elution with GINS from size exclusion column [4]: did not affect binding

B2: fluorescently labelled GINI-core peptide (Ala478-Gly497), WT (peptide)
peptide: Flu-GYGAPSEKHEQADEDLLSQYENG
modifications: not fully specified; printed as Flu-GYGAPSEKHEQADEDLLSQYENG
notes: three residues printed before the TopBP1 stretch Ala478-Gly497; human TopBP1 GINI core, Ala478-Gly497; also called TopBP1-GINI-core peptide WT; source: synthetic peptide (Peptide Protein Research Ltd)
Kd [5]: ~8 µM
